The target of test [1] is T1, human Fn14 (human, UniProt Q9NP84 28-129).
T1 sequence: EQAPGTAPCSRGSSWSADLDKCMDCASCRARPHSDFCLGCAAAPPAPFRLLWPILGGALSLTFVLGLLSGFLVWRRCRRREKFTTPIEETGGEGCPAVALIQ
The experiment in a line: cell-based or functional assay.

Test [2] concerns the target T2, phage-displayed hFn14 extracellular domain (human, UniProt Q9NP84 28-77).
T2 construct: also called FN14 Ectodomain; FN14 Ecto
The experiment in a line: phage ELISA, antibody on plate, 10-fold phage dilutions. The protocol:
Each normalized preparation was 10-fold serially diluted and added in solution to the MAbs attached to the solid phase. ELISAs shown here were performed simultaneously with the same preparations of phage. Binding was detected using HRP-conjugated anti-M13 phage polyclonal IgG and TMB substrate. Optical density at 450 nm was quantified using a Spectramax spectrophotometer. Error bars for each dilution represent the standard deviation of duplicate assays. […] ELISAs were performed under similar conditions to those described for Panel A. Methods according to Epitope mapping using phage expressed Fn14—Method 1.
The wells of Maxisorp immunoplates (Nunc) were coated overnight at 4° C. with the target monoclonal antibodies or recombinant Tweak-Fc at a concentration of 2 μg/mL in PBS. MAb 5G8 was used as a negative control for ELISA plates coated with tested antibodies. Recombinant Fc alone was used as a negative control for ELISA plates coated with recombinant Tweak-Fc. […] 10-fold serial dilutions of phage were made using 5% skim milk/PBS solution in 2 ml-well microtiter plates and phage dilutions were added to the coated, blocked ELISA plates for 1 hr, with vigorous shaking at room temperature. Phage were subsequently removed from the wells and the ELISA plates were washed 4× with PBS/0.05% Tween 20. […]
In general terms: ELISA stands for enzyme-linked immunosorbent assay.

Test [3] has as its target T3, synthetic peptide hFn14 sub-domain 2 (human, biotin on the added C-terminal lysine; disulfide bonds as in the solution structure of He et al. 2009).
T3 construct: also called sub-domain 2 peptide
T3 peptide: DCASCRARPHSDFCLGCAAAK
Kind of test: ELISA on biotinylated sub-domain 2 peptide, mAb at 5 ng/ml. The source says: FIG. 21B is a graphical representation showing reactivity of anti-Fn14 mAbs CRCBT-06-001, CRCBT-06-002, CRCBT-06-003, CRCBT-06-004, CRCBT-06-005, CRCBT-06-006, CRCBT-06-007 and ITEM-1 with a synthetic peptide representing sub-domain 2 of Fn14. Plates were coated with sub-domain 2 peptide and various dilutions of antibody were allowed to bind, bound antibody was detected with anti-mouse HRP and TMB substrate. The average of duplicate readings are plotted, error bars represent standard deviations. The ELISA was repeated to ensure consistent results. The vertical line at 5 ng/ml within the linear part of the curves is the point at which a comparison of the reactivity of each mAb was analyzed.
(§1) Peptides representing sub-domains 1p, 2 and 3 of hFn14 (FIG. 20, Panels B and C and FIG. 14, Panel A) and for disulfide pair mutants (Cys3&6ΔS and Cys4&5ΔS; FIG. 20 Panels D and E) were synthesized by GLBiochem Ltd. (Shanghai, China) and the cysteine residues for disulfide bonds were chosen as described in the solution structure by He et al., (2009). An additional lysine residue was added to the C-terminus in order to attach a biotin moiety and to enable the peptides to bind to neutravidin coated plates (Pre-blocked; Pierce). For these experiments, a control peptide with a biotin at the C-terminus was used as a negative control and isotype control antibodies were also used.
The ELISA was performed essentially according to the manufacturer's recommended protocol (Pierce). Briefly, peptide was coated onto wells (in duplicate) at 1-10 μg/ml for 2 hours at room temperature. Wells were washed in PBS/0.05% Tween 20/0.1% BSA 3 times and dilutions of each antibody were added in wash buffer for 1 hour with gentle agitation. After another three washes anti-mouse HRP-conjugated to horse radish peroxidase (HRP; Chemicon) was added at 1/1000 dilution for 1 hour shaking. […] Optical density at 450 nm was quantified using a Spectromax absorbance spectrophotometer.

Test [4] has as its target T4, synthetic peptide hFn14 sub-domain 3 (human, cysteine pairing not given here).
T4 construct: also called sub-domain 3 peptide
T4 peptide: ASCRARPHSDFCLGK(Biotin)
Kind of test: ELISA on biotinylated sub-domain 3 peptide, mAb at 0.2 ug/ml. The protocol: An additional lysine residue was added to the C-terminus in order to attach a biotin moiety and to enable the peptides to bind to neutravidin coated plates (Pre-blocked; Pierce). For these experiments, a control peptide with a biotin at the C-terminus was used as a negative control and isotype control antibodies were also used.
(§2) The ELISA was performed essentially according to the manufacturer's recommended protocol (Pierce). Briefly, peptide was coated onto wells (in duplicate) at 1-10 μg/ml for 2 hours at room temperature. Wells were washed in PBS/0.05% Tween 20/0.1% BSA 3 times and dilutions of each antibody were added in wash buffer for 1 hour with gentle agitation. After another three washes anti-mouse HRP-conjugated to horse radish peroxidase (HRP; Chemicon) was added at 1/1000 dilution for 1 hour shaking. Finally, after 4 further washes the plate was developed using TMB (3,3′,5,5′-tetramethylbenzidine) substrate (Pierce), and the reaction was stopped using 2M H2SO4 solution. Optical density at 450 nm was quantified using a Spectromax absorbance spectrophotometer.
The reactivity of CRCBT-06-001 CRCBT-06-002, CRCBT-06-003, CRCBT-06-004, CRCBT-06-005, CRCBT-06-006 and CRCBT-06-007 with sub-domain 3 was lower than for sub-domain 2, indicating this region may be a partial epitope for these antibodies. However, the differences in binding to this region could reveal subtle variations in the contact regions of the antibodies with hFn14. The order of binding from strongest to weakest was CRCBT-06-005, CRCBT-06-002, CRCBT-06-001, CRCBT-06-006, CRCBT-06-007 and ITEM-1. The relative binding of each antibody to sub-domain 3 at a single point in the linear region of the curves was measured at 0.2 µg/ml (FIG. 21C). […] This could indicate the epitope of ITEM-1 may differ slightly to the CRCBT antibodies based on weaker interaction with surface exposed residues in sub-domain 3.

Test [5] deals with T5, synthetic peptide hFn14 sub-domain 1p (human, biotin on the added C-terminal lysine).
T5 construct: synthesised by GLBiochem
T5 peptide: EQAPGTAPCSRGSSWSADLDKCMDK
The experiment in a line: ELISA on biotinylated synthetic peptide. The protocol: as §1, §2

For test [6], the target named is T1, human Fn14. Kind of test: cell-based or functional assay. This is another data set of the same source.
Test [7] has as its target T6, Histidine tagged hFn14 extracellular domain, bacterially expressed (human, UniProt Q9NP84 28-77).
T6 construct: also called recombinant Fn14; recombinant human Fn14; not shown: (His)6 tag from pET-15b
The experiment in a line: ELISA on coated His-tagged protein.

The target of test [8] is T7, His tagged hFn14 extracellular region mutant R56K (human, UniProt Q9NP84 28-77).
T7 construct: not shown: (His)6 tag
The experiment in a line: ELISA with purified His-tagged hFn14 R56K; x axis 'Log (c)' without unit, µg/ml by the legend.

The target in test [9] is T8, His tagged hFn14 extracellular region mutant R56A (human, UniProt Q9NP84 28-77).
T8 construct: not shown: (His)6 tag
The experiment in a line: ELISA with purified His-tagged hFn14 R56A; x axis 'Log (c)' without unit, µg/ml by the legend.

Test [10] addresses T2, phage-displayed hFn14 extracellular …. The experiment in a line: phage ELISA, antibody on plate, 10-fold phage dilutions. The protocol: Each normalized preparation was 10-fold serially diluted and added in solution to the MAbs attached to the solid phase. All ELISAs shown were performed simultaneously with the same preparations of phage. Binding was detected using HRP-conjugated anti-M13 phage polyclonal IgG and TMB substrate. Optical density at 450 nm was quantified using a Spectramax spectrophotometer. Error bars for each dilution represent the standard deviation of duplicate assays. In this figure, reference to “FN14 Ecto” is a reference to the extracellular domain of hFn14. Methods according to Epitope mapping using phage expressed Fn14—Method 1.
The wells of Maxisorp immunoplates (Nunc) were coated overnight at 4° C. with the target monoclonal antibodies or recombinant Tweak-Fc at a concentration of 2 μg/mL in PBS. MAb 5G8 was used as a negative control for ELISA plates coated with tested antibodies. Recombinant Fc alone was used as a negative control for ELISA plates coated with recombinant Tweak-Fc. […] 10-fold serial dilutions of phage were made using 5% skim milk/PBS solution in 2 ml-well microtiter plates and phage dilutions were added to the coated, blocked ELISA plates for 1 hr, with vigorous shaking at room temperature. […] Optical density at 450 nm was quantified using a Spectramax absorbance spectrophotometer.
This is another data set of the same source.

Test [11] concerns the target T9, Histidine tagged mouse Fn14 extracellular domain (mouse, UniProt Q9CR75 28-80).
T9 construct: extracellular domain; also called mFn14; not shown: (His)6 tag from pET-15b
T9 sequence (looked up): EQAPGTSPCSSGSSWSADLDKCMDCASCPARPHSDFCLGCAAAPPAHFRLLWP
Kind of test: ELISA with purified His-tagged mouse Fn14; x axis 'Log (c)' without unit, µg/ml by the legend.

Test [12] has as its target T10, His tagged hFn14 extracellular region mutant R56P (human, UniProt Q9NP84 28-77).
T10 construct: also called R56P mutant; not shown: (His)6 tag
The experiment in a line: ELISA with purified His-tagged hFn14 R56P; x axis 'Log (c)' without unit, µg/ml by the legend.

Test [13] deals with T11, synthetic peptide Sub-domain 2 Cys 3&6 ΔS (human, not fully specified; biotin on the added C-terminal lysine).
T11 construct: also called sub-domain 2 cys3&6ΔS mutant
T11 peptide: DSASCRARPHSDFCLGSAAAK
The experiment in a line: peptide ELISA: biotinylated synthetic peptide on neutravidin plate, antibody titrated (legend: 0.1-0.0001 µg/ml; axis 'Log (c)'), anti-mouse HRP, TMB, OD 450 nm.

Read-outs that look alike come from different tables or passages of the source. Ends that are not written are not given here. * marks the point of attachment. Biotin = O=C1N[C@H]2[C@H](CS[C@H]2CCCCC(=O)*)N1

B1: CRCBT-06-007 (antibody, IgG2b, V domains shown)
VH: QVKLEESGGVLVQPGGSMKLSCIASGFSFSKYWMNWVRQSPEKGLEWVAEIRVKSNNYATHYAESVKGRFIISRDDSKSSVYLQMNNLRAEDTGIYYCTKSYADYFDYWGQGTTLTVSS
VL: DIVMTQSTASLAVSLGQRATISCRASQSVSTSSYSYMHWYQQKPGQPPKVLIKYASNLESGVPARFSGSGSGTDFTLNIHPVEEEDAATYYCQHSWEIPYTFGGGTKLEIKR
With B1, the “NFκB-GFP reporter in HEK293T cells” value with human Fn14 [1] amounted to 1 µg/mL. Besides, the figures for the binding result in test [2] and in [5] were “binds” and “no binding”, respectively. Moreover, the “% decrease in binding compared to CRCBT-06-001 and CRCBT-06-002” value in test [3] is 48%. In addition, the “% decrease in binding compared with CRCBT-06-005” value in test [4] is 73%. For the same molecule, the “% Agonist, IL-8 secretion by A375 cells” value in the test with human Fn14 [6] worked out at 16%. Moreover, the “% Antagonist, IL-8 secretion by A375 cells” value with human Fn14 [6] turned out to be 89%.

B2: CRCBT-06-005 (antibody, IgG2b, V domains shown)
VH: QVQLQESGGGLVQPGGSMKLSCVASGFTFSYYWMNWVRQSPEQGLEWIAEIRLQSNDYPTHYAESVKGRFTISRDDSKNSVYLQMNNLRPEDTGIYYCACRYADYFDHWGQGTTLTVSS
VL: DIVLTQTTASLTVSLGQRATISCRASQSVSTSTYSYMHWYQQTPGQPPTVLIKYASSLESGVPTRFSGSGSGTDFTLNIHPVEEEDTATYYCQHSWEIPYTFGGGTKLEIKR
B2: the binding result in test [7], in [8], in test [9], in test [10], in test [11] and in test [12] was “binds” throughout. For the same molecule, the binding result in test [5] is reported as “no binding”; in test [13], “binds”. The “NFκB-GFP reporter in HEK293T cells” value with human Fn14 [1] stood at 1 µg/mL. The “% decrease in binding compared to CRCBT-06-001 and CRCBT-06-002” value in test [3] was 40%. In addition, the “% Agonist, IL-8 secretion by A375 cells” value with human Fn14 [6] worked out at 26%. Further, the “% Antagonist, IL-8 secretion by A375 cells” value with human Fn14 [6] stood at 92%.

B3: CRCBT-06-006 (antibody, IgG2a, V domains shown)
VH: QVQLQESGGGLVQPGGSMKLSCVASGFTFSYYWMNWVRQSPEQGLEWIAEIRLQSNDYPTHYAESVKGRFTISRDDSKNSVYLQMNNLRPEDTGIYYCACRYADYFDHWGQGTTLTVSS
VL: DIVITQSPASLTVSLGQRATISCRASQSVSTSTYSYMHWYQQTPGQPPTVLIKYASSLESGVPTRFSGSGSGTDFTLNIHPVEEEDTATYYCQHSWEIPYTFGGGTKLEIKR
In the case of B3, the “NFκB-GFP reporter in HEK293T cells” value in the test with human Fn14 [1] is 1 µg/mL. Besides, in [3], the “% decrease in binding compared to CRCBT-06-001 and CRCBT-06-002” value amounted to 76%. For the same molecule, the binding result in test [10] was “binds”; in test [5] it was “no binding”. For the same molecule, the “% decrease in binding compared with CRCBT-06-005” value in test [4] was 73%. Moreover, the “% Agonist, IL-8 secretion by A375 cells” value with human Fn14 [6] is 106%.

The record behind these values is US20200239586A1 (LA TROBE UNIVERSITY, published 2020).
